The results in this text go back to patent publication CN117164676A (UNIV XIAMEN; BEIJING WANTAI BIOLOGICAL PHARMACY ENTPR CO LTD, dated 2023).

For one test, the target named is T1, 不含表位肽的载体蛋白(HBcAg) C149.
T1 construct: also called 载体蛋白C149; 突变型HBc
T1 chain: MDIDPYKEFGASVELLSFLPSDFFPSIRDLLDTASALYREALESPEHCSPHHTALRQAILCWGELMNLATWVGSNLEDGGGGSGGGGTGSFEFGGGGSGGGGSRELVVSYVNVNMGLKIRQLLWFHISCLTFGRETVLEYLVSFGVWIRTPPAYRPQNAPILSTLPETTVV
Put plainly: Western blot. For orientation: In western blotting, separated proteins are transferred to a membrane and probed.

In the next test the target is T2, 融合蛋白VZV-ORF9-F3.
T2 chain: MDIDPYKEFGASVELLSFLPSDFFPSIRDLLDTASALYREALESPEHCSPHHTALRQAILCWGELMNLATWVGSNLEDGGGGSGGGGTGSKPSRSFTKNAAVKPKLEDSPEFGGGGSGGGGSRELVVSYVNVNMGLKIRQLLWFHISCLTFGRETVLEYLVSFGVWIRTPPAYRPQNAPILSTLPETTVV
As to the kind of experiment: Western blot, antibody at 2μg/mL.

Test [1] concerns the target T3, 水痘-带状疱疹病毒(VZV) pOka毒株ORF9蛋白 (Varicella-Zoster Virus, pOka毒株, UniProt P09272 1-302).
T3 sequence: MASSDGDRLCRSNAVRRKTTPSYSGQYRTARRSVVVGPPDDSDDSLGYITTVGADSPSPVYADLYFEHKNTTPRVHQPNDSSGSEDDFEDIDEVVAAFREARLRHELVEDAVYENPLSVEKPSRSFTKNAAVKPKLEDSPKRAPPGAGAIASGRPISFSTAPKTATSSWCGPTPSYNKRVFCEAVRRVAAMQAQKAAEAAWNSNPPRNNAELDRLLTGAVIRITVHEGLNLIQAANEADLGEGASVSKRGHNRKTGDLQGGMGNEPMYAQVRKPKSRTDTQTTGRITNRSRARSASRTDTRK
Put plainly: cell-based or functional assay.

A further test concerns the target T4, VZV-ORF9-肽12 (Varicella-Zoster Virus, pOka毒株).
T4 construct: Synthetic 20-mer of ORF9; also called 121-140aa
T4 peptide: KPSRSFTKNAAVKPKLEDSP
As to the kind of experiment: indirect ELISA, peptide coated at 1μg/孔. A general note: In an ELISA, binding on a coated surface is turned into a signal by an enzyme label.

In another test the target is T5, 融合蛋白VZV-ORF9-F2-2.
T5 chain: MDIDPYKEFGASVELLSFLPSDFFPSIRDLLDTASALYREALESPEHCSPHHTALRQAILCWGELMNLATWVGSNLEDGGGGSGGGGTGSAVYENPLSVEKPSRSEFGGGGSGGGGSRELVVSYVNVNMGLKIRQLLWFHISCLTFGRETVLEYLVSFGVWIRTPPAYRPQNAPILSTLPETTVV
Put plainly: Western blot, antibody at 2μg/mL.

A further test concerns the target T6, 融合蛋白VZV-ORF9-F2-3.
T6 chain: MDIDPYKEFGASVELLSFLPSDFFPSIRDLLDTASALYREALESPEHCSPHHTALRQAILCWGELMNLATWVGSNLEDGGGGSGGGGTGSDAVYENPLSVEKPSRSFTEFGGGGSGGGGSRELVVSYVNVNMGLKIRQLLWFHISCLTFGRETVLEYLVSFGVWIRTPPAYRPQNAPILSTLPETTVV
As to the kind of experiment: Western blot, antibody at 2μg/mL.

The target of another test is T7, 融合蛋白VZV-ORF9-F2-8.
T7 chain: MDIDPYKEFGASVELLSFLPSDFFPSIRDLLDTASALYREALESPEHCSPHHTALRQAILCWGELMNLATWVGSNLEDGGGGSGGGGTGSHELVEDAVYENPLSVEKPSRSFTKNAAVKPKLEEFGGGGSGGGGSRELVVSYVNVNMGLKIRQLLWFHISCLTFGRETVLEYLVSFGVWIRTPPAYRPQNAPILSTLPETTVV
Put plainly: Western blot, antibody at 2μg/mL.

The target in another test is T8, 融合蛋白VZV-ORF9-F2-5.
T8 chain: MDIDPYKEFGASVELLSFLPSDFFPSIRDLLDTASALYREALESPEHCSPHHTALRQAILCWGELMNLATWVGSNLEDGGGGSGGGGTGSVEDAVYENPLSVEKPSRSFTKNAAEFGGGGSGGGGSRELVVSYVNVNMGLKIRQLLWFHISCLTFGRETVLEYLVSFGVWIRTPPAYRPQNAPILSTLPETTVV
Put plainly: Western blot, antibody at 2μg/mL.

Another test concerns the target T9, 融合蛋白VZV-ORF9-F2-7.
T9 chain: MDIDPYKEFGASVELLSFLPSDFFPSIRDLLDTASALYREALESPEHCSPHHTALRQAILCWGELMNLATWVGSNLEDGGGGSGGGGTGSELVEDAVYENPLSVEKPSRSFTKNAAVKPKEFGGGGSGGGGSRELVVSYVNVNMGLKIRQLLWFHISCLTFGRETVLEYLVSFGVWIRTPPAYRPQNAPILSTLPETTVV
As to the kind of experiment: Western blot, antibody at 2μg/mL.

The next test deals with T10, 融合蛋白VZV-ORF9-F2-1.
T10 chain: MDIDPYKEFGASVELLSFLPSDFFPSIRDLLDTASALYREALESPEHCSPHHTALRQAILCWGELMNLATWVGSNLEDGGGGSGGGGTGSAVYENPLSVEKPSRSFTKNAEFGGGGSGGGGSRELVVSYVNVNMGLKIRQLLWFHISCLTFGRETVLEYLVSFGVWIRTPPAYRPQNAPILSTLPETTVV
Put plainly: Western blot, antibody at 2μg/mL.

Another test has as its target T11, 融合蛋白VZV-ORF9-F2-6.
T11 chain: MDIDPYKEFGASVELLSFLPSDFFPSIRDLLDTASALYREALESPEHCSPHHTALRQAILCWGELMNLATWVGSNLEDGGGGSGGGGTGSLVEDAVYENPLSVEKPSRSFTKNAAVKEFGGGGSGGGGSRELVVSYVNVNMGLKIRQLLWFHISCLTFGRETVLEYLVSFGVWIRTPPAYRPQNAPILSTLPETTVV
Put plainly: Western blot, antibody at 2μg/mL.

The next test concerns the target T12, 融合蛋白VZV-ORF9-F2-4.
T12 chain: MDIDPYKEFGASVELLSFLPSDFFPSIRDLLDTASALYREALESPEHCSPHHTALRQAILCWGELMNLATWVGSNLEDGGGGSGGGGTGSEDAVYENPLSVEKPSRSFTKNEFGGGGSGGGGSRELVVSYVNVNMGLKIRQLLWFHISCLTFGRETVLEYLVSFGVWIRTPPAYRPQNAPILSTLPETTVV
As to the kind of experiment: Western blot, antibody at 2μg/mL.

Another test has as its target T13, VZV-ORF9-肽11 (Varicella-Zoster Virus, pOka毒株).
T13 construct: Synthetic 20-mer of ORF9; also called 111-130aa
T13 peptide: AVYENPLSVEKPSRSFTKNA
Put plainly: indirect ELISA, peptide coated at 1μg/孔.

For another test, the target named is T14, 融合蛋白VZV-ORF9-F1.
T14 construct: Expressed in E. coli, forms virus-like particles; Run on SDS-PAGE for the Western blot
T14 chain: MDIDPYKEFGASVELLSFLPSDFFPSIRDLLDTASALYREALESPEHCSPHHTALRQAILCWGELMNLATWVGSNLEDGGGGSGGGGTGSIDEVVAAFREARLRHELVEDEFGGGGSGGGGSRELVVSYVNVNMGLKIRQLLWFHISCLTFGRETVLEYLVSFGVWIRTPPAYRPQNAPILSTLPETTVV
Put plainly: Western blot, antibody at 2μg/mL.

The target in the next test is T15, VZV-ORF9-肽9 (Varicella-Zoster Virus, pOka毒株).
T15 construct: Synthetic 20-mer of ORF9; also called 91-110aa
T15 peptide: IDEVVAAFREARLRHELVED
As to the kind of experiment: indirect ELISA, peptide coated at 1μg/孔.

B1: 抗VZV ORF9中和性单克隆抗体13A7 (antibody, IgG1, V domains shown)
VH: QVQLQQSGAVLARPGASVKLSCKASGYTFTTYWVQWIKQRPGQGLEWIGTIYPGDGDARYAQKFKGKATLTATESSSTAYMQLSSLASEDSAVYYCSRREVYDDYAWFAYWGQGTLVTVSA
VL: QIVLSQSPAILSASPGEKVTMTCRASSSVHYMHWYQQKSGFSPKPWIYATSNLASGVPARFSGSESGTSYSLTISRVEAEDAATYFCQQWSTSPPTFGSGTKLEIK
notes: also called 单抗13A7
On to B1, for which the binding result in the test with 不含表位肽的载体蛋白(HBcAg) C149 is given as “no binding (tested: 2μg/mL)”; in the test with 融合蛋白VZV-ORF9-F3, “binds”; with VZV-ORF9-肽12, “binds”. The “中和效价 (ELISPOT中和实验, VZV pOka, ARPE-19细胞)” value in test [1] was 16 dilution 1:x of the 1 mg/mL stock.

B2: 抗VZV ORF9中和性单克隆抗体4E8 (antibody, IgG1, V domains shown)
VH: QVQLQQSGPELVKPGASVKMSCKTSGYTFTDDVISWVKQRTGQGLEWIGEINPGSGSIYYNEKFKGKATLTADKSSTTAYMQLSSLTSEDSAVYFCARSQYWGQGTTLTVSS
VL: DVVMTQTPLSLPVSLGDQASISCRSSQSLVHSNGNTYLHWYLQKPGQSPKLLIYKVSNRFSGVPDRFSGSGSGTDFTLKISRVEAEDLGVYFCSQSTHVPLTFGAGTKLELK
notes: also called 单抗4E8
Regarding B2, the binding result is reported as “no binding (tested: 2μg/mL)” with 不含表位肽的载体蛋白(HBcAg) C149; “binds” with 融合蛋白VZV-ORF9-F2-2; “binds” with 融合蛋白VZV-ORF9-F2-3; “binds” with 融合蛋白VZV-ORF9-F2-8; “binds” with 融合蛋白VZV-ORF9-F2-5; “binds” in the test with 融合蛋白VZV-ORF9-F2-7. The binding result in the test with 融合蛋白VZV-ORF9-F2-1, with 融合蛋白VZV-ORF9-F2-6, with 融合蛋白VZV-ORF9-F2-4 and with VZV-ORF9-肽11 was “binds” each time. For the same molecule, the “中和效价 (ELISPOT中和实验, VZV pOka, ARPE-19细胞)” value in [1] was 32 dilution 1:x of the 1 mg/mL stock.

B3: 抗VZV ORF9中和性单克隆抗体4E9 (antibody, IgG1, V domains shown)
VH: QVQLQQSGAELMKPGASVKISCKATGYTFSRYWIEWVKLRPGHGLDWIGEILPGSKTNYNEKFKGKATFTADTSSNTAYMQLSSLTSEDSAVYYCAREGFVYWGQGTLVTVSA
VL: DIKMTQSPSSMYASLGERVTITCKASQDINSYLSWLQQKPGKSPKTLIYRANRLVDGVPSRFSGSGSGQDYSLTISSLEYEDMGIYYCLQFDEFPYTFGGGTKLEI
notes: also called 单抗4E9
In the case of B3, the binding result is on record as “no binding (tested: 2μg/mL)” with 不含表位肽的载体蛋白(HBcAg) C149, “binds” in the test with 融合蛋白VZV-ORF9-F1 and “binds” in the test with VZV-ORF9-肽9. In addition, the “中和效价 (ELISPOT中和实验, VZV pOka, ARPE-19细胞)” value in [1] was 16 dilution 1:x of the 1 mg/mL stock.
